The source of these data is patent US10538556.

In series [1] the test system is stapled (cyclic) beta2-beta3 loop peptide L44C, F56C (synthetic). The experiment in a line: flow. The conditions noted are these: 25 C, E. coli surface display, apparent Kd.
For series [2], the system named is Tat peptide (basic domain) (Human immunodeficiency virus 1). The conditions noted are these: method of this Kd not stated.
Series [3] addresses TBP6.7 Q48A Q48A (in TBP6.7 Y31H/Q36R) (Homo sapiens) (UniProt P09012). The experiment in a line: ITC. Particulars: 20 C.
In series [4] the target is TBP6.7 R52A R52A (in TBP6.7 Y31H/Q36R) (Homo sapiens) (UniProt P09012). The experiment in a line: ITC. The conditions noted are these: 20 C.
Series [5] concerns TBP6.7 (U1A-derived TAR binding protein, crystallization variant) (Homo sapiens). The series can be described thus: ITC. A general note: Isothermal titration calorimetry measures the heat released or taken up as one component is titrated into another.
Series [6] addresses TBP6.7 R49A R49A (in TBP6.7 Y31H/Q36R) (Homo sapiens) (UniProt P09012). The series can be described thus: ITC. Particulars: 20 C.
Series [7] deals with TBP6.7 deltaC truncated after residue 90 (in TBP6.7 Y31H/Q36R) (Homo sapiens). The series can be described thus: ITC. The conditions noted are these: 20 C.
Series [8] deals with TBP6.7 Q54A Q54A (in TBP6.7 Y31H/Q36R) (Homo sapiens) (UniProt P09012). The experiment in a line: ITC. The conditions noted are these: 20 C.
The target in series [9] is TBP6.7 T50A T50A (in TBP6.7 Y31H/Q36R) (Homo sapiens) (UniProt P09012). The experiment in a line: ITC. Particulars: 20 C; error printed as XX.
The target in series [10] is TBP6.7 R47K R47K (in TBP6.7 Y31H/Q36R) (Homo sapiens) (UniProt P09012). The experiment in a line: ITC. Particulars: 20 C.
In series [11] the target is TBP6.7 P46A P46A (in TBP6.7 Y31H/Q36R) (Homo sapiens) (UniProt P09012). The experiment in a line: ITC. The conditions noted are these: 20 C.
For series [12], the target named is TBP6.7 P51A P51A (in TBP6.7 Y31H/Q36R) (Homo sapiens) (UniProt P09012). The experiment in a line: ITC. The conditions noted are these: 20 C.
For series [13], the target named is TBP6.7 Q48T Q48T (in TBP6.7 Y31H/Q36R) (Homo sapiens) (UniProt P09012). The series can be described thus: ITC. The conditions noted are these: 20 C.
In series [14] the target is TBP6.7 R47A R47A (in TBP6.7 Y31H/Q36R) (Homo sapiens) (UniProt P09012). The experiment in a line: ITC. The conditions noted are these: 20 C; estimate, low c-value.

pKd: −log10 of the molar value.

TBP6.7 Q48A Q48A (in TBP6.7 Y31H/Q36R) (Homo sapiens), sequence (P09012 other isoform, or with tags, fused parts or gaps Q48A Q48A Y31H Q36R): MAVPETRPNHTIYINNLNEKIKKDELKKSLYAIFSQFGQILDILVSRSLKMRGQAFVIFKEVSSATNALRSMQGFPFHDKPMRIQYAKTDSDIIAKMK
TBP6.7 R47A R47A (in TBP6.7 Y31H/Q36R) (Homo sapiens), sequence (P09012 1-98 Y31H/Q36R/R47A): as the sequence (P09012 other isoform, or with tags, fused parts or gaps Q48A Q48A Y31H Q36R) above, with Y31H, Q36R, R47A, H78Y counted along it
TBP6.7 P46A P46A (in TBP6.7 Y31H/Q36R) (Homo sapiens), sequence (P09012 whole entry, stated change not applied): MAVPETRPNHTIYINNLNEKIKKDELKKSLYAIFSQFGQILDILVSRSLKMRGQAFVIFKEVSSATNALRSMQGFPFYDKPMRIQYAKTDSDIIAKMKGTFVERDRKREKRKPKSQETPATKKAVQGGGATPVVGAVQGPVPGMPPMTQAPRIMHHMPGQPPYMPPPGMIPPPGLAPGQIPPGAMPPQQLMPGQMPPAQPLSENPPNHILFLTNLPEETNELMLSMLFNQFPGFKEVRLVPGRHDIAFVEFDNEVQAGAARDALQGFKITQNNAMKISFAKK
TBP6.7 T50A T50A (in TBP6.7 Y31H/Q36R) (Homo sapiens), sequence (P09012 whole entry, stated change not applied): as above
TBP6.7 R49A R49A (in TBP6.7 Y31H/Q36R) (Homo sapiens), sequence (P09012 whole entry, stated change not applied, the tested form may be a part): as the sequence (P09012 whole entry, stated change not applied) above
TBP6.7 P51A P51A (in TBP6.7 Y31H/Q36R) (Homo sapiens), sequence (P09012 whole entry, stated change not applied): as above
TBP6.7 Q48T Q48T (in TBP6.7 Y31H/Q36R) (Homo sapiens), sequence (P09012 whole entry, stated change not applied): as above
TBP6.7 R52A R52A (in TBP6.7 Y31H/Q36R) (Homo sapiens), sequence (P09012 1-98 Y31H/Q36R/R52A): as the sequence (P09012 other isoform, or with tags, fused parts or gaps Q48A Q48A Y31H Q36R) above, with Y31H, Q36R, R52A, H78Y counted along it
TBP6.7 Q54A Q54A (in TBP6.7 Y31H/Q36R) (Homo sapiens), sequence (P09012 1-98 Y31H/Q36R/Q54A): as the sequence (P09012 other isoform, or with tags, fused parts or gaps Q48A Q48A Y31H Q36R) above, with Y31H, Q36R, Q54A, H78Y counted along it
TBP6.7 R47K R47K (in TBP6.7 Y31H/Q36R) (Homo sapiens), sequence (P09012 1-98 Y31H/Q36R/R47K): as the sequence (P09012 other isoform, or with tags, fused parts or gaps Q48A Q48A Y31H Q36R) above, with Y31H, Q36R, R47K, H78Y counted along it

For orientation: pKd means the Kd on a negative log10 scale, so that one unit is a factor of ten. In the case of HIV-1 TAR RNA, the pKd in series [1] is 7.10; in series [2], 6.59; in series [3], 8.26; in series [4], 6.54; in [5] (20 C, n=0.99), 8.60; in [5] (37 C, 0.05 M NaCl, 0.05 M KCl, 2 mM MgCl2, 2 mM beta-mercaptoethanol, pH 7.5, estimate of about 0.7 nM at 20 C in same example), 7.73. Further, the pKd in [6] was 6.15; in series [7], 7.92; in [8], 8.14; in [9], 7.94; in series [10], 6.81; in [11], 7.93. In addition, the pKd was 7.97 in [12], 8.44 in series [13] and 5.82 in series [14].
